Experimental findings from article PMC8322834 (Biochemistry, 2020) are described below.

The target of the assay is DnaK (E. coli Hsp70 chaperone), ADP-state (E. coli, UniProt P0A6Y8 1-638). Nature of the assay: fluorescence polarisation. (In general: In fluorescence polarisation assays a small probe gives low polarisation when free and higher when bound to something large.)

No end group written: not given here. AlexaFluor 488 = AlexaFluor 488 dye

Sequence of DnaK (E. coli Hsp70 chaperone), ADP-state (P0A6Y8 whole entry): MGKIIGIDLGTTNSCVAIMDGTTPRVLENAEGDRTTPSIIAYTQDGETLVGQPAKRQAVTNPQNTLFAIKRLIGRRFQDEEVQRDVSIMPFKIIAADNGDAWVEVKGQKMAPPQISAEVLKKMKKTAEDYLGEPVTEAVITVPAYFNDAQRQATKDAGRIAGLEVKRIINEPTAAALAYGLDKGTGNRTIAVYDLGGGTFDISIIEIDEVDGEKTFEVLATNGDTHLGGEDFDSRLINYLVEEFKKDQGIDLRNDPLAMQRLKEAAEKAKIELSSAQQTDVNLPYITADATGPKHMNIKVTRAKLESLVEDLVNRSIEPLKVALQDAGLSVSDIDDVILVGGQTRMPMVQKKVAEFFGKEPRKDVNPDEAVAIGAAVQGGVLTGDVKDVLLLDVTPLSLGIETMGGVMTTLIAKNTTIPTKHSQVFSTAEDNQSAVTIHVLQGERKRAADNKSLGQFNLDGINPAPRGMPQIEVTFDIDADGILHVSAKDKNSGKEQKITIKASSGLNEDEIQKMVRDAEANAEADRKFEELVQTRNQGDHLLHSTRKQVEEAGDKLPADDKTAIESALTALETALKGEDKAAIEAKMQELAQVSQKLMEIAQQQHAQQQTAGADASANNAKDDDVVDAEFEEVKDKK

B1: KLR-70-C-AF488, AlexaFluor 488-conjugated KLR-70 peptide (peptide)
peptide: RRGKKLLLLLKKKGC(AlexaFluor 488)
By Kd is commonly meant a measure of binding affinity in units of concentration. The low end stands for a tighter complex, the high end for a looser complex. For B1, binding was characterised by a dissociation constant (Kd) of 1730 nM.
